Patent US20050053994

B1: human LS-DNase (protein)
chain: MRICSFNVRSFGESKQEDKNAMDVIVKVIKRCDIILVMEIKDSNNRICPILMEKLNRNSRRGITYNYVISSRLGRNTYKEQYAFLYKEKLVSVKRSYHYHDYQDGDADVFSREPFVVWFQSPHTAVKDFVIIPLHTTPETSVKEIDELVEVYTDVKHRWKAENFIFMGDFNAGCSYVPKKAWKNIRLRTDPRFVWLIGDQEDTTVKKSTNCAYDRIVLRGQEIVSSVVPKSNSVFDFQKAYKLTEEEALDVSDHFPVEFKLQSSRAFTNSKKSVTLRKKTKSKRS
B2: human DNase I (protein)
chain: LKIAAFNIQTFGETKMSNATLVSYIVQILSRYDIALVQEVRDSHLTAVGKLLDNLNQDAPDTYHYVVSEPLGRNSYKERYLFVYRPDQVSAVDSYYYDDGCEPCGNDTFNREPAIVRFFSRFTEVREFAIVPLHAAPGDAVAEIDALYDVYLDVQEKWGLEDVMLMGDFNAGCSYVRPSQWSSIRLWTSPTFQWLIPDSADTTATPTHCAYDRIVVAGMLLRGAVVPDSALPFNFQAAYGLSDQLAQAISDHYPVEVMLK

Target: actin

Protein | DNA-hydrolytic activity in plasmid nicking assay (supercoiled pBR322, agarose gel)
B1 | the DNA-hydrolytic activity of LS-DNase was not inhibited by concentrations of actin that fully inhibited human DNase I
B2 | the DNA-hydrolytic activity of human DNase I was inhibited by added actin in a concentration-dependent manner
